Measured values: patent US20070099268A1, “Chimeric HCN channels” (priority 2005, published 2007)
Several values for one entry are separate records, joined by “and”; a condition that tells them apart may be missing. Identical values can stand only once.

Columns and labels:
[1] = tested on: oocyte; settings: cited from earlier work
[2] = tested on: cell-free patches from Xenopus oocytes; settings: cited from earlier work
[3] = tested on: neonatal ventricular myocytes; assay: Voltage clamp (tail currents) of HCN2 expressed with AdHCN2 in neonatal ventricular myocytes; assay type: cell-based, rat
Method: For increased expression efficiency, an adenoviral construct for mHCN2 was prepared. Gene delivery and transfer procedures followed previously published methods (Ng et al., 2000; He et al., 1998). A DNA fragment (between EcoRI and XbaI restriction sites) that included mHCN2 DNA downstream of the CMV promoter was obtained from plasmid pTR-mHCN2 (Santoro and Tibbs, 1999) and subcloned into the shuttle vector pDC516 (AdMax™; Microbix Biosystems, Toronto, Canada). The resulting pDC516-mHCN2 shuttle plasmid was co-transfected with a 35.5 kb El-deleted Ad genomic plasmid pBHGΔE1,3FLP (AdMax™) into El-complementing HEK293 cells. […]
The whole-cell voltage clamp technique was employed to record native If or expressed IHCN2 or IHCN4. Action potentials were recorded in current clamp mode, again using a whole cell patch electrode. […]
(§1) The activation relation of the native or expressed current can be determined from the steady-state I-V relation. In this case, the reversal potential (Vf) was separately determined from the fully activated I-V relation (Accili et al., 1991) and used to generate the activation relation (y=I/(gmax*(V−Vf)), where gmax is the maximal conductance). […] Tail currents were measured at a negative voltage (−125 mV) to avoid contamination by transient outward and other currents at less negative voltages. […]

[4] = tested on: adult ventricular myocytes; assay: Voltage clamp (tail currents) of HCN2 expressed with AdHCN2 in adult ventricular myocytes; assay type: cell-based, rat
Method: Freshly isolated adult ventricular myocytes were prepared using the procedure described by Kuznetsov et al. (1995). This entailed a Langendorff perfusion of collagenase, followed by trimming away of the atria. The remaining tissue was minced and dissociated in additional collagenase solution. The isolated myocytes were suspended in a SFM then plated on 9×22 mm glass coverslips at 0.5-1×10^3 cells/mm^2. Two to three hours later, after the myocytes had adhered to the coverslips, the adenoviral infection procedure was begun (see below).
For increased expression efficiency, an adenoviral construct for mHCN2 was prepared. Gene delivery and transfer procedures followed previously published methods (Ng et al., 2000; He et al., 1998). A DNA fragment (between EcoRI and XbaI restriction sites) that included mHCN2 DNA downstream of the CMV promoter was obtained from plasmid pTR-mHCN2 (Santoro and Tibbs, 1999) and subcloned into the shuttle vector pDC516 (AdMax™; Microbix Biosystems, Toronto, Canada). The resulting pDC516-mHCN2 shuttle plasmid was co-transfected with a 35.5 kb El-deleted Ad genomic plasmid pBHGΔE1,3FLP (AdMax™) into El-complementing HEK293 cells.
AdHCN2 infection of rat ventricular myocytes was carried out 2-3 h after the isolated cells were plated onto coverslips. The culture medium was removed from the dishes (35-mm) and the inoculum of 0.2-0.3 ml/dish was added containing AdHCN2. The value of m.o.i. (multiplicity of infection—the ratio of viral units to cells) was 15-100. The inoculum was dispersed over the cells every 20 min by gently tilting the dishes so that the cells were evenly exposed to the viral particles. The dishes were kept at 37° C. in a CO2 incubator during the adsorption period of 2 h, then the inoculum was discarded and the dishes were washed and refilled with the appropriate culture medium. The dishes remained in the incubator for 24-48 h before electrophysiological experiments were conducted.
(§2) The whole-cell voltage clamp technique was employed to record native If or expressed IHCN2 or IHCN4. Action potentials were recorded in current clamp mode, again using a whole cell patch electrode. Experiments were carried out on cells superfused at 35° C. Extracellular solution contained (mM): NaCl, 140; NaOH, 2.3; MgCl2, 1; KCl, 5.4; CaCl2, 1.0; HEPES, 5; glucose, 10; pH 7.4. To record from myocytes expressing native currents (If), myocytes expressing HCN2 (IHCN2) or HCN4 (IHCN4), [K^+]0 was increased to 10 mM, and MnCl2 (2 mM) and BaCl2 (4 mM) added to the superfusate to eliminate calcium and inward rectifier (IK1) currents. In some experiments CsCl (4 mM) was used extracellularly to identify the pacemaker current as the Cs-sensitive current. […]
The activation relation of the native or expressed current can be determined from the steady-state I-V relation. […]

[5] = tested on: mammalian expression systems; settings: cited from earlier work
[6] = tested on: neonatal rat ventricular myocytes; assay: Voltage clamp of HCN2 or HCN4 plasmid (lipofectin) expressed in neonatal rat ventricular myocytes; assay type: cell-based
Source text: cDNAs encoding mouse HCN2 (mHCN2, GenBank AJ225122) or HCN4 (mHCN4, GenBank deposit in progress) were subcloned into the pCI mammalian expression vector (Promega, Madison, Wis.). The resulting plasmids (pCI-mHCN2 or pCI-mHCN4) were used for neonatal rat ventricular myocyte transfection, as indicated. A separate plasmid (pEGFP-CI; Clontech, Palo Alto, Calif.) expressing the gene of enhanced green fluorescent protein (EGFP) as a visual marker for successful DNA transfer was included in all transfection experiments. For transfection, 2 μg of pCI-mHCN and […] of pEGFP-CI were first incubated in 200 μl of SFM containing 10 μl of lipofectin (Gibco Life Technologies, Rockville, Md.) at room temperature for 45 min. The mixture was then added to a 35-mm petri dish containing […] suspended in 0.8 ml of SFM. After overnight incubation at 37° C. in a CO2 incubator, the medium containing the plasmids and lipofectin was discarded and the dish was refilled with 2 ml of fresh SFM.
as §2, with “current. The patch pipette solution included (mM): aspartic acid, 130; KOH, 146; NaCl, 10; CaCl2, 2; EGTA-KOH, 5; Mg-ATP, 2; HEPES-KOH, 10, pH 7.2. Where indicated, 10 μM cAMP was included in the pipette solution. A fast solution changing apparatus expedited the experimental protocols. The pipette resistance was typically 1-3 M. An Axopatch-200B amplifier and pClampS software (Axon Instruments) were used for acquisition and data analysis.” for “current.”
as §1

B1: mHCN2: mouse HCN2 hyperpolarization-activated, cyclic nucleotide-gated channel, wild type (GenBank AJ225122) (protein)
chain: MDARGGGGRPGDSPGTTPAPGPPPPPPPPAPPQPQPPPAPPPNPTTPSHPESADEPGPRARLCSRDSACTPGAAKGGANGECGRGEPQCSPEGPARGPKVSFSCRGAASGPSAAEEAGSEEAGPAGEPRGSQASFLQRQFGALLQPGVNKFSLRMFGSQKAVEREQERVKSAGAWIIHPYSDFRFYWDFTMLLFMVGNLIIIPVGITFFKDETTAPWIVFNVVSDTFFLMDLVLNFRTGIVIEDNTEIILDPEKIKKKYLRTWFVVDFVSSIPVDYIFLIVEKGIDSEVYKTARALRIVRFTKILSLLRLLRLSRLIRYIHQWEEIFHMTYDLASAVMRICNLISMMLLLCHWDGCLQFLVPMLQDFPSDCWVSINNMVNHSWSELYSFALFKAMSHMLCIGYGRQAPESMTDIWLTMLSMIVGATCYAMFIGHATALIQSLDSSRRQYQEKYKQVEQYMSFHKLPADFRQKIHDYYEHRYQGKMFDEDSILGELNGPLREEIVNFNCRKLVASMPLFANADPNFVTAMLTKLKFEVFQPGDYIIREGTIGKKMYFIQHGVVSVLTKGNKEMKLSDGSYFGEICLLTRGRRTASVRADTYCRLYSLSVDNFNEVLEEYPMMRRAFETVAIDRLDRIGKKNSILLHKVQHDLSSGVFNNQENAIIQEIVKYDREMVQQAELGQRVGLFPPPPPPQVTSAIATLQQAVAMSFCPQVARPLVGPLALGSPRLVRRAPPGPLPPAASPGPPAASPPAAPSSPRAPRTSPYGVPGSPATRVGPALPARRLSRASRPLSASQPSLPHGVPAPSPAASARPASSSTPRLGPAPTARTAAPSPDRRDSASPGAASGLDPLDSARSRLSSNL
midpoint of activation [1]: −78 mV | shift of activation curve to more positive potentials by cAMP ([2]; binding of cAMP to the CNBD): 17 mV | steady-state activation curve more hyperpolarized than that of HCN1 [2]: 20 mV | shift of voltage dependence by saturating cAMP, neonate ([3]; 10 μM cAMP in the pipette): 17 mV | slope factor (K), neonatal myocytes ([3]; AdHCN2): 9.8±0.6 mV | shift of voltage dependence by saturating cAMP, adult ([4]; 10 μM cAMP in the pipette): 14 mV | slope factor (K), adult myocytes ([4]; AdHCN2): 6.5±0.5 mV | negative shift of voltage dependence of activation/deactivation kinetics in the adult ([4]; adult vs neonatal): 21 mV | shift in the activation relation (midpoints), adult vs neonatal myocytes ([4]; negative in the adult): 18 mV | midpoint of activation reported in other mammalian expression studies [5]: −83 to −97 mV | slope factor (K) ([6]; lipofectin transfection): 7.7±0.7 mV | difference in midpoint of activation of HCN2 relative to HCN4 ([6]; neonatal myocytes): 8.5 mV and 9 mV
